Data published in patent US20120207670A1.

Biological target: IL-12 (mouse; target of the rat anti-mouse antibodies in the in vitro neutralization studies) (mouse) (UniProt P43432)
Test: cell-based or functional assay

IL-12 (mouse; target of the rat anti-mouse antibodies in the in vitro neutralization studies) (mouse), sequence (P43432 23-335, chain 1 of 2): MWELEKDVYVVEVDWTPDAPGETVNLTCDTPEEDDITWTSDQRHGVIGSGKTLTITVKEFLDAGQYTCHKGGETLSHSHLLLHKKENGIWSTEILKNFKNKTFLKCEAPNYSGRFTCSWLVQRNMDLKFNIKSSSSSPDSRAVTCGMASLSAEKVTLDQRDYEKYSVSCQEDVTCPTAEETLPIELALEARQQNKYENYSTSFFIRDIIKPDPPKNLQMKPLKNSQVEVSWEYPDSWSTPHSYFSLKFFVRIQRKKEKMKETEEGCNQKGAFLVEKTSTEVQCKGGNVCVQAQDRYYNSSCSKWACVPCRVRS
IL-12 (mouse; target of the rat anti-mouse antibodies in the in vitro neutralization studies) (mouse), sequence (P43431 23-215, chain 2 of 2, further chain): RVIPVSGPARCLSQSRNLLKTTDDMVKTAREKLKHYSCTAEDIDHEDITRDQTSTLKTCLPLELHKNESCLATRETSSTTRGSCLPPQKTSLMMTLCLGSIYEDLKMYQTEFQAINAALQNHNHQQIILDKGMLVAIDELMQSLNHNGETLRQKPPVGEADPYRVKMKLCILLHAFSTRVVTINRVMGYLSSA

For “C17.8 (rat anti-mouse IL-12/IL-23p40, IgG2a) (antibody)”, the in vitro neutralization of IL-12 (fold (against anti-p35 mAb C18.2)) was 5.
